Data as given in PMC5902578.

Experiments:
[1] = molecular target: yeast Hsp90 W300E (S. cerevisiae) (UniProt P02829); assay: AUC; as a1, with 2 mM ATPγS
[2] = molecular target: yeast Hsp90 W300A (S. cerevisiae) (UniProt P02829); assay: AUC; as a1, with 2 mM ATPγS
[3] = molecular target: yeast Hsp90 W300E (S. cerevisiae) (UniProt P02829); assay: AUC; as a1, with 2 mM AMP–PNP
[4] = molecular target: yeast Hsp90 W300A (S. cerevisiae) (UniProt P02829); assay: AUC; as a1, with 2 mM AMP–PNP

Measured: percent of labelled GR-LBD in complex

human glucocorticoid receptor ligand binding domain (GR-LBD) (domain or fragment)
< 5%: [1] | [2] | [3] | [4]
